# In patent US20170240637A1 (Memorial Sloan Kettering, published 2017):
# T1: wild type 2Ig-B7H3-mFc (human, UniProt Q5ZPR3-2 29-248, limits assumed)
# T1 construct: Q5ZPR3 canonical entry is the 4Ig isoform; the 2Ig form is its shorter isoform; also called 2Ig-B7H3-Fc; WT 2Ig-B7H3-Fc; not shown: mouse Fc
# T1 sequence (looked up): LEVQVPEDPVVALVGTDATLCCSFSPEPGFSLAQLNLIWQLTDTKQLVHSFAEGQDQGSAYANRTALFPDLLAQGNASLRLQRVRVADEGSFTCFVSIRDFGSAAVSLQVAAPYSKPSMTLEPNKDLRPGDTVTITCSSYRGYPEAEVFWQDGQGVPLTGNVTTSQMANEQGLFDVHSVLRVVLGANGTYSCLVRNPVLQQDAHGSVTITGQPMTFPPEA
# T2: 2Ig-B7H3-mFc mutant R127A (human, UniProt Q5ZPR3-2 29-248, limits assumed)
# T2 construct: not shown: mouse Fc
# T2 sequence (looked up): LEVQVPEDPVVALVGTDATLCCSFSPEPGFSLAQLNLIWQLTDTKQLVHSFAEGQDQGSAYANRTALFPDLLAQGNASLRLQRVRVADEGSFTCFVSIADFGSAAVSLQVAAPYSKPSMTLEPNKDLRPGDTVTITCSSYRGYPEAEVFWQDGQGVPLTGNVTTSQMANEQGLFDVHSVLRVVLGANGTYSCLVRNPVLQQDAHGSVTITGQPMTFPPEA
# T3: 4Ig-B7H3 (human, UniProt Q5ZPR3 27-461, limits assumed)
# T3 construct: also called 4Ig-B73H3
# T3 sequence (looked up): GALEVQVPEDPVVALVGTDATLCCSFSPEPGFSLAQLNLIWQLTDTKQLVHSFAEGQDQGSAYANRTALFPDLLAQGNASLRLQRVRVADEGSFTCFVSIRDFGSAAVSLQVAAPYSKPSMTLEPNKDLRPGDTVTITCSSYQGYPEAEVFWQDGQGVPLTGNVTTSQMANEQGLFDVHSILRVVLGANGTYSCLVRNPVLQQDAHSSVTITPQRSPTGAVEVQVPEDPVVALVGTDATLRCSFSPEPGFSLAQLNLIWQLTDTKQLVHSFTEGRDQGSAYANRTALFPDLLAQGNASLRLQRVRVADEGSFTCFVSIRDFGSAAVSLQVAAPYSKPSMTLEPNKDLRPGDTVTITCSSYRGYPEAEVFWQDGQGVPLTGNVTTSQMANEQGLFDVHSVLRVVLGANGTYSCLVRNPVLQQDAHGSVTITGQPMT
# T4: 2Ig-B7H3 without Fc fusion (human, UniProt Q5ZPR3-2 29-245, limits assumed)
# T4 construct: also called 2IgB7H3 (R&D)
# T4 sequence (looked up): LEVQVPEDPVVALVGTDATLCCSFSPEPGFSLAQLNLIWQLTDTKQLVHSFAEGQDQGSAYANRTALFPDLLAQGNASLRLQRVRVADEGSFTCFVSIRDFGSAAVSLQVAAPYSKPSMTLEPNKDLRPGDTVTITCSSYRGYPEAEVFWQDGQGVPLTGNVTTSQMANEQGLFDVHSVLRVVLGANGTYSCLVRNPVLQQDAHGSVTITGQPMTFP
# T5: 4Ig-B7H3 fused to mouse Fc (B7H3-mFc) (human, UniProt Q5ZPR3 29-466, limits assumed, biotinylated on primary amines (NHS-biotin) in the experiment of paragraph 316)
# T5 construct: Expressed in DG44 CHO cells; also called 4Ig-B7H3-Fc; 4Ig-B7H3-mFc; not shown: mouse Fc
# T5 sequence (looked up): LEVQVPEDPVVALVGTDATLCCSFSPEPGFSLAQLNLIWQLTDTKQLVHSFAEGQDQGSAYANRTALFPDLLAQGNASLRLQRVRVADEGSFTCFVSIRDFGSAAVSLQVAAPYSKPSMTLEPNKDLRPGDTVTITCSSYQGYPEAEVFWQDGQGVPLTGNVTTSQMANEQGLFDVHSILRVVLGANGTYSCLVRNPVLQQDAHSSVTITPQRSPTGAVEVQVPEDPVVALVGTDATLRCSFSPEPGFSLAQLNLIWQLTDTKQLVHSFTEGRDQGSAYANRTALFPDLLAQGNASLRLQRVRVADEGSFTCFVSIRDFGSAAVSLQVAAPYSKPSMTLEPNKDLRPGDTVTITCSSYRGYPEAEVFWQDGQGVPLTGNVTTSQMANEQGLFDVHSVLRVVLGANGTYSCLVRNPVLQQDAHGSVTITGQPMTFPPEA
# Assays:
# [1] = target: T1, wild type 2Ig-B7H3-mFc; assay: SPR, 400 nM antibody over immobilized WT 2Ig-B7H3-mFc
# [2] = target: 2Ig-B7H3-mFc mutant D128A (human) (UniProt Q5ZPR3); assay: SPR, 400 nM antibody over immobilized D128A mutant
# [3] = target: T2, 2Ig-B7H3-mFc mutant R127A; assay: SPR, 400 nM antibody over immobilized R127A mutant
# [4] = target: B7H3 on B7H3-positive human tumor cells (M14, LAN-1, IMR-32, HeLa) (human) (UniProt Q5ZPR3); assay: cell-based or functional assay
# [5] = target: T3, 4Ig-B7H3; assay: SPR
# [6] = target: T4, 2Ig-B7H3 without Fc fusion; assay: SPR
# [7] = target: T4, 2Ig-B7H3 without Fc fusion; assay: SPR, IgG on 2Ig-B7-H3 without Fc fusion
# Experimental: (§1) In brief, B7H3 antigen (either 2Ig-B7H3, 4Ig-B7H3, 2Ig-B7H3-mFc, 4Ig-B7H3-mFc), was directly immobilized onto the CM5 sensor chip via […]. Reference surface was set up for nonspecific binding and refractive index changes. […] The association and dissociation phase data were fitted simultaneously to a 1:1 model by using BIAevaluation 3.2. All the experiments were done at 25° C.
# [8] = target: T3, 4Ig-B7H3; assay: SPR, IgG on 4Ig-B7-H3 without Fc fusion
# Experimental: as §1
# [9] = target: B7H3 on B7H3-positive human tumor cells (M14, LAN-1, IMR-32, HeLa) (human) (UniProt Q5ZPR3); assay: cell-binding assay of 131I-labelled antibody on LAN-1 cells
# [10] = target: T1, wild type 2Ig-B7H3-mFc; assay: SPR, antigen on CM5 chip
# Experimental: (§2) In brief, B7H3 antigen (either 2Ig-B7H3, 4Ig-B7H3, 2Ig-B7H3-mFc, 4Ig-B7H3-mFc), was directly immobilized onto the CM5 sensor chip via […]. Reference surface was set up for nonspecific binding and refractive index changes. For analysis of the kinetics of interactions, varying concentrations of scFvs were injected at flow rate of 30 μl/min using running buffer containing 10 mM HEPES, 150 mM NaCl, 3 mM EDTA, and 0.05% Surfactant P-20 (pH 7.4). The association and dissociation phase data were fitted simultaneously to a 1:1 model by using BIAevaluation 3.2. All the experiments were done at 25° C.
# [11] = target: T3, 4Ig-B7H3; assay: SPR (Biacore T-100), 4Ig-B7H3 on CM5 chip, scFv injected
# Experimental: as §2
# [12] = target: T4, 2Ig-B7H3 without Fc fusion; assay: ELISA, right panel '2IgB7H3', scFv serially diluted 0.01-10 µg/ml
# Experimental: B7H3-mFc (100 ng/well) or 2IgB7H3 (R&D, Minneapolis, Minn.) (25 ng/well) were coated on polyvinyl microtiter plates in PBS overnight. Plates were then blocked with 0.5% BSA in PBS at 150 μl per well for 1 h at room temperature. Antibodies were added in triplicates with serial dilution in 0.5% BSA. Following incubation for 1 h at room temperature and washing with PBS, HRP-mouse anti-human Fc antibody, HRP-streptavidin, or HRP-mouse anti-Flag antibody was added. After incubation for 1 h at room temperature and further washing, the color was developed and quantified using an ELISA plate reader at 490 nm.
# [13] = target: T5, 4Ig-B7H3 fused to mouse Fc (B7H3-mFc); assay: SPR, IgG on 4Ig-B7H3-Fc
# Experimental: as §1
# [14] = target: T1, wild type 2Ig-B7H3-mFc; assay: SPR, IgG on 2Ig-B7H3-mFc
# Experimental: as §1
# [15] = target: T3, 4Ig-B7H3; assay: SPR, antigen on CM5 chip
# Experimental: as §2
molecule,measurement,setting,value
anti-B7H3 MAb MIH42 (Thermo Scientific Pierce) (antibody),Max RU,[1],2530 RU
same,Relative binding (to WT),[2],68.8%
same,Relative binding (to WT),[3],76.1%
"ch8H9 6.1 IgG (ch8H9 + 6 affinity maturation mutations) (antibody, V domains shown) VH: QVQLQQSGAELVKPGASVKLSCKTSGYTFTNYDINWVRQRPGQGLEWIGWIFPGDDSTQYNEKFKGKATLTTDTSSSTAYMQLSRLTSEDSAVYFCARQTTGTWFAYWGQGTLVTVSA VL: DIVMTQSPATLSVTPGDRVTLSCRASQSISDYLYWYQQKSHESPRLLIKYASQSISGIPSRFSGSGSGSDFTLSINSVEPEDVGVYYCQNGHSFPLTFGAGTKLELKR","ADCC EC50 (µg/ml), 51Cr release, LAN-1 targets, human PBMC effectors",[4],0.1 µg/mL
same,Fold change EC50 relative to ch8H9 (ADCC),[4],14 fold
same,fold enhancement in binding relative to ch8H9,[5],2 to 4 fold
same,fold enhancement in binding relative to ch8H9,[6],2 to 4 fold
same,Kd,[7],0.62 nM
same,koff,[7],4.25e-05 s⁻¹
same,kon,[7],68900 M⁻¹ s⁻¹
same,Kd,[8],3.7 nM
same,koff,[8],0.000123 s⁻¹
same,kon,[8],33500 M⁻¹ s⁻¹
same,in vitro immunoreactivity,[9],73%
"murine 8H9 (m8H9) IgG1 monoclonal antibody (antibody, V domains shown, 131I-labelled in the LAN-1 immunoreactivity assay; the label is not carried by the letters., also called MAb 8H9) VH: QVQLQQSGAELVKPGASVKLSCKASGYTFTNYDINWVRQRPEQGLEWIGWIFPGDGSTQYNEKFKGKATLTTDTSSSTAYMQLSRLTSEDSAVYFCARQTTATWFAYWGQGTLVTVSA VL: DIVMTQSPATLSVTPGDRVSLSCRASQSISDYLHWYQQKSHESPRLLIKYASQSISGIPSRFSGSGSGSDFTLSINSVEPEDVGVYYCQNGHSFPLTFGAGTKLELK",Kd,[7],0.81 nM
same,koff,[7],2.24e-05 s⁻¹
same,kon,[7],27800 M⁻¹ s⁻¹
same,Kd,[8],8.9 nM
same,koff,[8],0.000165 s⁻¹
same,kon,[8],18500 M⁻¹ s⁻¹
same,in vitro immunoreactivity,[9],69%
same,Kd,[10],0.28 nM
same,koff,[10],1.03e-05 s⁻¹
same,kon,[10],36700 M⁻¹ s⁻¹
"hu8H9 clone S3.3 scFv (scFv, also called Sort3; not shown: FLAG and His tags) scFv: QVQLVQSGAEVVKPGASVKLSCKTSGYTFTNYDINWVRQRPGQGLEWIGWIFPGDGSTQYNEKFKGKATLTTDTSTSTAYMELSSLRSEDTAVYFCARQTTATWFAYWGQGTLVTVSSGGGGSGGGGSGGGGSEIVMTQSPATLSVSPGERVTLSCRASQSISDYLYWYQQKSHESPRLLIKYASQSISGIPARFSGSGSGSEFTLTINSVEPEDVGVYYCQNGHSFPLTFGQGTKLELKR",Kd,[11],9.85 nM
same,koff,[11],0.000244 s⁻¹
same,kon,[11],24800 M⁻¹ s⁻¹
same,EC50 (read off the curve),[12],~0.2 µg/mL
"hu8H9-H1L2 IgG1 (antibody, V domains shown) VH: QVQLVQSGAEVKKPGASVKLSCKASGYTFTNYDINWVRQAPGQGLEWIGWIFPGDGSTQYNEKFKGKATLTTDTSTSTAYMELSSLRSEDTAVYFCARQTTATWFAYWGQGTLVTVSS VL: EIVMTQSPATLSVSPGERVTLSCRASQSISDYLHWYQQKSHESPRLLIKYASQSISGIPARFSGSGSGTEFTLTINSVEPEDVGVYYCQNGHSFPLTFGQGTKLEIKR",Kd,[13],42.7 nM
same,koff,[13],0.0239 s⁻¹
same,kon,[13],560000 M⁻¹ s⁻¹
same,Kd,[14],68.4 nM
same,koff,[14],0.00116 s⁻¹
same,kon,[14],17000 M⁻¹ s⁻¹
same,Kd,[15],34.8 nM
"hu8H9-H2L1 IgG1 (antibody, V domains shown) VH: QVQLVQSGAEVVKPGASVKLSCKASGYTFTNYDINWVRQAPGQGLEWIGWIFPGDGSTQYNEKFKGKATLTTDTSTSTAYMELSRLTSEDTAVYFCARQTTATWFAYWGQGTLVTVSS VL: EIVMTQSPATLSVSPGERVTLSCRASQSISDYLHWYQQKPGQAPRLLIKYASQSISGIPARFSGSGSGTEFTLTISSVQPEDVGVYYCQNGHSFPLTFGQGTKLEIKR",Kd,[15],34.8 nM
"hu8H9-H2L2 IgG1 (antibody, V domains shown) VH: QVQLVQSGAEVVKPGASVKLSCKASGYTFTNYDINWVRQAPGQGLEWIGWIFPGDGSTQYNEKFKGKATLTTDTSTSTAYMELSRLTSEDTAVYFCARQTTATWFAYWGQGTLVTVSS VL: EIVMTQSPATLSVSPGERVTLSCRASQSISDYLHWYQQKSHESPRLLIKYASQSISGIPARFSGSGSGTEFTLTINSVEPEDVGVYYCQNGHSFPLTFGQGTKLEIKR",Kd,[15],38.6 nM
